B1: KRT34 (parent)
chain: YQSYFKTIEELQQKILCAKAENAR
B2: RBBP5 (parent)
chain: TGTSNTTAIKSIEFARKGSCFLIN

Variants of: B1
Experiment: protein stability index of a GFP-peptide fusion (GPS, HEK-293T) (PSI 1-6); higher = more stable
Conditions: c terminus: a fixed tail appended
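Note: lentivirally expressed fusions sorted by FACS into six bins by GFP to DsRed ratio, PSI derived from sequencing read proportions per bin multiplied by bin number.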

Protein stability index: each site, then its substitutions
F5: K 2.84 | P 1.89 | T 2.12 | G 3.23 | H 2.34 | A 2.01 | C 2.24 | N 3.02 | W 1.32 | I 1.94 | M 2.62 | Q 2.53 | Y 1.62 | R 1.6 | E 4.08 | L 1.81 | S 2.73 | V 1.9 | D 3.68
T7: I 1.84 | G 1.96 | E 2.58 | L 1.64 | F 1.81 | A 2.2 | C 1.64 | N 2.34 | P 1.77 | H 2.35 | K 1.58 | D 2.44 | M 1.67
Y1: P 3.59 | F 1.96 | S 2.93 | H 2.56 | A 3.3 | E 4.59 | C 2.23 | N 3.45 | L 1.55 | K 2.88 | Q 3.45 | I 1.52 | G 3.95 | T 3.08 | D 4.17 | M 2.1 | R 2.94 | V 2.27
Q2: T 1.59 | C 1.88 | F 2.53 | V 1.54 | R 2.25 | W 2.39 | G 2.12 | A 2.1 | M 2.14 | P 2.26 | K 2.54 | L 1.9 | H 3.43 | N 2.28 | Y 2.04 | I 1.57 | D 2.13 | S 2.5 | E 3.07
K6: Y 1.66 | I 1.91 | T 2.67 | H 2.24 | P 1.81 | W 2.18 | E 1.85 | Q 2.53 | A 1.96 | L 2.3 | G 2.09 | C 1.51 | S 1.74 | D 2.01 | M 2.1 | R 1.82 | V 2.83
S3: E 1.67 | F 1.8 | M 1.77 | V 1.62 | D 1.98 | T 1.61 | W 1.54 | P 1.97 | L 1.77 | H 1.5 | I 1.61 | R 1.79 | K 1.96 | Q 2.3 | C 1.96 | G 1.85 | A 2.69 | N 2.23 | Y 2.13
Y4: R 2.14 | L 1.93 | E 1.63 | K 1.52 | D 2.24 | V 1.57 | C 1.73 | S 2 | G 3.06 | F 1.86 | I 2.27 | H 2.4 | P 2.19 | A 2.2 | N 2.21 | Q 2.65 | M 1.48 | T 2.98

Variants of: B2
Experiment: as above
Conditions: c terminus: a fixed tail appended

Protein stability index: each site, then its substitutions
C20: Q 2.51 | R 2.55 | E 2.98 | V 2.09 | I 2.23 | K 2.58 | D 2.6 | W 1.63 | H 2.16 | N 3.03 | A 2.6 | G 2.49 | M 2.01 | S 2.59 | P 2.74 | F 1.9 | L 2.25 | Y 2.12 | T 2.56
F14: S 3.42 | N 3.17 | M 2.69 | P 3.05 | A 3.06 | K 3.17 | C 2.53 | D 3.15 | W 2.07 | Y 2.38 | I 2.64 | R 3.05 | V 2.86 | E 3.84 | T 2.97 | Q 3.12 | L 2.51 | G 2.76 | H 2.73
E13: V 1.54 | T 2.31 | Y 2.6 | W 2.23
F21: C 2.44 | S 3.09 | R 3.15 | A 3.36 | T 3.5 | L 2.07 | V 2.75 | I 2.37 | W 2.25 | K 3.48 | H 2.86 | Q 3.17 | P 3.13 | D 3.83 | M 3.52 | N 3.53 | Y 2.56 | G 3.35 | E 3.73
L22: G 3.03 | Q 3.48 | S 3.05 | C 2.79 | R 2.81 | H 2.52 | D 3.15 | P 3.53 | N 3.09 | E 3.31 | A 2.33 | Y 2.54 | W 1.71 | T 3.09 | K 3.21 | M 2.64 | I 2.55 | F 1.99 | V 2.28
I23: P 2.82 | E 3.38 | C 2.36 | N 2.99 | G 2.73 | T 3.5 | H 2.79 | M 2.49 | Y 2.58 | F 1.98 | K 3.62 | A 2.67 | S 3.1 | D 3.02 | L 2.05 | R 3.03 | Q 3.31 | V 2.62 | W 2.36
S19: H 2.04 | D 3.72 | F 1.61 | C 2.67 | P 2.04 | K 2.92 | N 2.17 | G 1.93 | V 2.25 | A 1.62 | R 2.24 | I 2.75 | Q 2.24 | M 1.59 | Y 1.26 | W 1.94 | E 2.33 | T 1.79 | L 2.56
R16: K 2.76 | S 2.44 | Y 2.49 | I 3.29 | N 3.21 | P 2.34 | L 3.26 | C 1.77 | D 2.7 | H 2.15 | E 3 | T 2.26 | G 2.42 | F 2.26 | Q 2.73 | W 1.74 | A 1.89 | M 1.75 | V 1.99
G18: F 1.99 | R 2.15 | W 1.62 | T 1.71 | P 2.35 | Q 2.28 | C 1.63 | K 2.3 | N 2.18 | S 2.32 | M 1.85 | A 1.9 | I 2.2 | Y 2.07 | H 1.74 | L 2.35 | E 2.62 | D 2.89 | V 3.95
A15: G 2.38 | E 2.44 | T 1.79 | M 1.94 | Y 1.74 | V 1.66 | R 2.22 | K 2.42 | L 2.58 | S 2.09 | H 2.39 | C 1.89 | F 2.52 | D 2.9 | N 2.67 | Q 2.51 | P 2.46 | W 2.23 | I 1.63
N24: Y 1.96 | Q 1.79 | F 2.74 | P 3.12 | T 1.76 | L 2.22 | K 2.02 | A 1.89 | S 2.04 | R 2.09 | D 2.85 | G 2.27 | W 2.71 | M 2.16 | E 3.01 | H 2.35 | C 2.38
K17: W 2.11 | H 2.33 | G 2.24 | T 2.46 | M 1.73 | R 2.7 | S 2.47 | N 2.63 | Q 2.5 | I 1.29 | V 1.7 | L 1.75 | Y 2.22 | P 2.3 | E 2.6 | D 2.7 | C 1.8 | F 2.17 | A 2.24

— the supplement of paper PMC10567573
